We go through one molecule from article PMC4254451, “The Crystal Structures of Apo and cAMP-Bound GlxR from Corynebacterium glutamicum Reveal Structural and Dynamic Changes upon cAMP Binding in CRP/FNR Family Transcription Factors”.

The data set addresses T1, GlxR (Cg-GlxR) (Corynebacterium glutamicum, UniProt Q79VI7 1-227).
T1 sequence: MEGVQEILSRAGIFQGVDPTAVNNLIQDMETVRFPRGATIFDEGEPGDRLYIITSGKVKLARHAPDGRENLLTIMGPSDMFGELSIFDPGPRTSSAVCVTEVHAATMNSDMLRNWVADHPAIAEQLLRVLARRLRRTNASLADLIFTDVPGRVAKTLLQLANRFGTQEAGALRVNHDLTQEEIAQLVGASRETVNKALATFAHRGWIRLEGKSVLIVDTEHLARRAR
Put plainly: fluorescence anisotropy; 1.5 mM cAMP; 100 mM KH2PO4 pH 7.8, 200 mM KCl, 1 mM 1-thioglycerol, 0 or 1.5 mM cAMP, 5 nM labelled DNA; temperature not stated. Particulars: protein: recombinant; tags: His6 (N-terminal, pET16b); chain copies: 2; label: 5'-FITC on strand 1; blunt.

B1: FITC-labelled 26-mer duplex (dsDNA)
DNA 1: ATTAATGTGAGTTAGCTCACTCATTA
DNA 2: TAATGAGTGAGCTAACTCACATTAAT
In the case of B1, the Kd (in general, the free concentration of one partner at which half of the binding sites on the other are occupied at equilibrium, for simple one-to-one binding) amounted to 87 nM.
